{"source": "patent US5981167A", "about": "“Surface plasmon resonance based enzymatic assay” (priority 1998, dated 1999)", "molecules": {"B1": {"name": "HisHIV183: HCV NS3 protease without solubilizing motif, refolded from E. coli inclusion body pellet (protein)", "chain": "APITAYAQQTRGLLGCIITSLTGRDKNQVEGEVQIVSTATQTFLATCINGVCWTVYHGAGTRTIASPKGPVIQTYTNVDQDLVGWPAPQGSRSLTPCTCGSSDLYLVTRHADVIPVRRRGDSRGSLLSPRPISYLKGSSGGPLLCPTGHAVGLFRAAVCTRGVAKAVDFIPVENLETTMRSPV"}}, "key": {"[1]": {"target": "maturation site peptide […] (CMV)"}, "[2]": {"tested_on": "HCV protease His-NS3(183)Δ4AHT", "details": "concentrated enzyme"}, "[3]": {"tested_on": "in vitro-translated 5A/5B substrate", "test": "Trans-cleavage assay in the presence of 4A peptide", "type": "biochemical, HCV", "details": "refolded protein", "excerpt": "Precipitation of protein occurred at the last step of dialysis, and the soluble protein was clarified by centrifugation. The overall protein recovery was about 0.10%."}}}
{"molecule": "CMV protease, refolded wild type (from UniProt P16753) (enzyme)", "values": [{"measurement": "Km", "setting": "[1]", "result": 1020, "unit": "µM"}]}
{"molecule": "Biotin-DTEDVVAC SMSYTWTGK-pY", "values": [{"measurement": "time to 50% substrate cleavage", "setting": "[2]", "result": "≤ 1", "unit": "h"}]}
{"molecule": "B1", "values": [{"measurement": "activity in trans-cleavage assay", "setting": "[3]", "result": "active"}]}
